In a protein production outcome set (Wang et al. 2014):

Test: label from the status in PepcDB records

Sequence	protein production
MVAKQLSIFLENKSGRLTEVTEVLAKENINLSALCIAENADFGILRGIVSDPDKAYKALKDNHFAVNITDVVGISCPNVPGALAKVLGFLSAEGVFIEYMYSFANNNVANVVIRPSNMDKCIEVLKEKKVDLLAASDLYKL	not failed
MNIGRHLLLVLFGWLPVRLGFAADAISVVDKQPVNWVAITMFAVFVLITLWITQWAAKKTRSSADFYTAGGTVTGFQNGLAIAGDYVSAASFLGITSAVMANGYDGMLYAIGFLVGWPILTFLIAERLRNLGKYTFADVVAYRFAATSVRLFASVSTLVVVLCYLIAQMVGAGALIRLLFGLDYWVAMVLVGGLMMVYVLFGGMAATTWVQIIKAVLLLIGATFMAVMIMRRFGFNFEGLFASAVEVKTQIAMAGGKSGEEAKALGLSIMAPGSFIKDPISAISLGIALVFGTAGLPHILMRFFTVPDARQARHSVLWAITWIGYCYILMFIIGFGAIVLVLANPQYADIASGTIRGGQGAANMAAVLVAKVVGGNVFMGFVSAVAFATILAVVAGLALSGASAVSHDVYAMVIKQGKPSSDTELLVSRVTTAVLGVVAVLLGIVFQKQNVAFMVSLAFAIAASANFPVLVLSLFWKNCTTRGAVIGGFLGLISSLVLTVLSPSVWVDTLGHSVDSVRFPYTSPALFSMTIGFVGIWLFSVLDRSGRAAKERVAFKAQQVRAETGLGASKMSPN	failed
MTRYLALDAFRGITIALMILVNTPGTWSHVYAPLLHAEWDGATPTDLVFPFFLFIIGSAMFFSFKKSNFSASPEQFRKIIKRGFIMFFIGFMLNVIPFTVNAEDWRIMGILQRIGIAYTVAACLVLTLNRTGVFIASAVILLAYWALLLSMGEGALTIEGNIIRQLDLAVFGANHMYTMRGVAFEPEGLLSTIPAIVNMLLGFELTRYLTSIEDKRSSVIKLTLIGGLAVGFGALWGLVLPINKSLWTPSYVIYSTGFACLLLAAFIWLIDIMKQVKLAEPLLVYGTNPLFVYVLSFLVVTMYLNINVGDVSMYAWLYKQLSGVFTPKLASFIFAFSHVAFFWYVSLKLYQRKIFIKI	failed
MAASAAATAAASAATAASAASGSPGSGEGSAGGEKRPAASSAAAASAAASSPAGGGGEAQELLEHCGVCRERLRPERDPRLLPCLHSACSACLGPATPAAANNSGDGGSAGDGAMVDCPVCKQQCYSKDIVENYFMRDSGSKASSDSQDANQCCTSCEDNAPATSYCVECSEPLCETCVEAHQRVKYTKDHTVRSTGPAKTRDGERTVYCNVHKHEPLVLFCESCDTLTCRDCQLNAHKDHQYQFLEDAVRNQRKLLASLVKRLGDKHATLQKNTKEVRSSIRQVSDVQKRVQVDVKMAILQIMKELNKRGRVLVNDAQKVTEGQQERLERQHWTMTKIQKHQEHILRFASWALESDNNTALLLSKKLIYFQLHRALKMIVDPVEPHGEMKFQWDLNAWTKSAEAFGKIVAERPGTNSTGPGPMAPPRAPGPLSKQGSGSSQPMEVQEGYGFGSDDPYSSAEPHVSGMKRSRSGEGEVSGLLRKVPRVSLERLDLDLTSDSQPPVFKVFPGSTTEDYNLIVIERGAAAAAAGQAGTVPPGAPGAPPLPGMAIVKEEETEAAIGAPPAAPEGPETKPVLMPLTEGPGAEGPRLASPSGSTSSGLEVVAPEVTSAPVSGPGILDDSATICRVCQKPGDLVMCNQCEFCFHLDCHLPALQDVPGEEWSCSLCHVLPDLKEEDGSLSLDGADSTGVVAKLSPANQRKCERVLLALFCHEPCRPLHQLATDSTFSMEQPGGTLDLTLIRARLQEKLSPPYSSPQEFAQDVGRMFKQFNKLTEDKADVQSIIGLQRFFETRMNDAFGDTKFSAVLVEPPPLNLPSAGLSSQELSGPGDGP	not failed
MSLHPHLNANLEGGVLTLAINRPEAKNALYGELYLWIAKALDEADQNKDVRVVVLRGAEHDFTAGNDMKDFMGFVQNPNAGPAGQVPPFVLLKSAARLSKPLIIAVKGVAIGIGVTILLQADLVFADNTALFQIPFVSLGLSPEGGASQLLVKQAGYHKAAELLFTAKKFNAETALQAGLVNEIVEDAYATAQATAQHLTALPLASLKQTKALMKHDLDQIIECIDHEAEIFMQRVQSPEMLEAVQAFMQKRQPDFSQEGHHHHHH	not failed
KQLGPHTYLVSGRMEIDDVNERFGLSLPESDDYLTVAGFILNSHQNIPQANEVVEIAPYTFTILRSSSTKIELVKMSIDD	not failed
MATPVVTKTAWKLQEIVAHASNVSSLVLGKASGRLLATGGDDCRVNLWSINKPNCIMSLTGHTSPVESVRLNTPEELIVAGSQSGSIRVWDLEAAKILRTLMGHKANICSLDFHPYGEFVASGSQDTNIKLWDIRRKGCVFRYRGHSQAVRCLRFSPDGKWLASAADDHTVKLWDLTAGKMMSEFPGHTGPVNVVEFHPNEYLLASGSSDRTIRFWDLEKFQVVSCIEGEPGPVRSVLFNPDGCCLYSGCQDSLRVYGWEPERCFDVVLVNWGKVADLAICNDQLIGVAFSQSNVSSYVVDLTRVTRTGTVTQDPVQASQPQTQQTPNPGVSLRRIYERPSTTCSKPQRVKHNSESERRSPSSEDDKDERESRAEIQNAEDYNEIFQPKNSISRTPPRRSEPFPAPPEDDIATAKEASKPSPAMDVQLPVPSQEVPARPSVMTSTPAPKGEPVIIPATRNEPIGLKASDFLPAVKVPQQAELVDEDAMSQIRKGHDTMCVVLTSRHKNLDTVRAVWTTGDIKTSVDSAVAINDLSVVVDLLNIVNQKASLWKLDLCTTVLPQIEKLLQSKYESYVQTGCTSLKLILQRFLPLITDILAAPPSVGVDISREERLHKCRLCFKQLKSISGLVKSRSGLSGRHGSAFRELHLLMASLD	failed
MSKREDEGCARKRRTEAGQRSEDCMNPNSVVISAFKVFQQELDTRYDKYERLVKISRDVTIESKRTIFLLHRVASVPDVEEILNEAEVKLDGVRQKIGQIAEELRGEDLHQFHRAFTPGIQEYVEAVSFHHFIRHRSLISLEEINARLVFIRDNNKAVGEGTFSSPCVLTFQITPTDYLLGVADLTGELMRMCISSVGNGDMDTPFQLSGFLRQIHDGFSLIGNTGPYEVSKKLHALRQSLGKVEDACYTLRVRGSEIPKHMLADVFSSRAAHIDPDDAMA	not failed
MGSFDDVIGNHQADTAMIVQISADRKEINLVSIPRDSLVDVPQCETSKGTIPAQYNVMFNSIFAGAYKTGGDLSSAASCTLNAVNSLTGLNIQNFIVVDFAGLVKMIDSVGGVDLCIPQNVNDPYTGLNLDKGMHHLDGVAATQYARIRHGIGDGSDTSRTTRQQYLIKQLMSEALSKNLFTDTAQLYQLAKSALKSLNISQGMADTAALAGLAMSLKNFTMTNLQTQTVPVVPAPSDPNRSVWTDEADNLWEKMRAGKPIFDTADSNSGGSSDTSSDNSASSDDSGTTDSNQSDTTAETPDPVTGLITKSDGTLVDPSTGGTVDPDDGSIHDATTGQYIGLADRYLNATVCAVPAKNLEHHHHHH	not failed
MNFLSIFVLIPLLMLAGLWAARGIKAIRGVMVTGASALLIASVVLTFMYLGERSAGNTAEMLFRADTLWYAPLHISYSVGVDGISVAMLLLSAVIVFTGTFASWRLQPLTKEYFLWFTLLSMGVFGFFISIDLFTMFMFYEIALIPMYLLIGVWGSGRKEYAAMKLTLMLMGGSAFLLIGILGIYFGSGATTMNLLEIAQLHNIPFAQQCIWFPLTFLGFGVLGALFPFHTWSPDGHASAPTAVSMLHAGVLMKLGGYGCFRIAMYLMPEAANELSWIFLILTGISVVYGAFSACVQTDLKYINAYSSVSHCGLVLFAILMLNQTAATGAILQMLSHGLMTALFFALIGMIYGRTHTRDVRELTGLMKVMPFLSVCYVIAGLANLGLPGLSGFIAEMTIFVGSFQNNDVFHRTLTIIACSSIVITAVYILRLVGKILYGTCTNKHHLALTDATWDERVAVICLIVCVAGLGMAPFWVSHMIGESVLPVVSQLIP	failed
MPKERVDVLAYKQGLFETREQAKRGVMAGLVVNVINGERYDKPGEKIDDGTELKLKGEKLRYVSRGGLKLEKALAVFNLSVEDMITIDIGASTGGFTDVMLQNGAKLVYAVDVGTNQLVWKLRQDDRVRSMEQYNFRYAEPVDFTEGLPSFASIDVSFISLNLILPALAKILVDGGQVVALVKPQFEAGREQIGKNGIVRESSIHEKVLETVTAFAVDYGFSVKGLDFSPIQGGHGNIEFLAHLEKTDSPQNDVPTSIKEVVAQAHKEFKKNEEERSFGVNPKDCPRK	not failed
MTDYVNYNQERWNRVSARQGNAYTVPLSHEEFLVAKDKPLSVSLTVGKTVPLDWFEKAKGKKLLGLACGGGQQGPISAAHSYETTILDFSKEQLDKDRLVAERENLDLQTVQADMTQAFPFEDESFDIIFCPVSNIYIEDLANMWQESYRVLKKGGLLMVGYMNPWIYVFDADDVWEHPDKTLVPKYSLPFNARQLEEAGQITIDPEYGYEFSHTLEEQIAGQLRAGFAMIDFYESKDSRNRLTQFASDYLANLSMKW	failed
MGLLDHLWDDTVAGPRPENGLGKLRKHHTFSFRPSSGNDQSEAGSARSYGEDSLPEEAVKVTRSIMIIKPPGYQGSSAPASPAGSTPPLSPFSPPLSPFSANAGGKEPFRFRRRSTSDAFEKAAGGSETGPRSSPPTYGM	failed
MKHAKQIAEHATIQSFLNCYLRETGSGEWITEDKRIEDIFYHLFQRDTCSTYLCCRLSAQNITLYGEVIYKSPTDRHLFGEQFYYQMGDSNSVMKADYVTVITFLIKEMSINYGEGTNPAELMLRVIRSCQNIEEFTKERKEDTSALYGFHTSFIEAEQSLLFGHLTHPTPKSRQGILEWKSAMYSPELKGECQLHYFRAHKSIVNEKSLLLDSTTVILKEELRNDEMVSKEFISKYCNEDEYSLLPIHPLQAEWLLHQPYVQDWIEQGVLEYIGPTGKCYMATSSLRTLYHPDAKYMLKFSFPVKVTNSMRINKLKELESGLEGKAMLNTAIGEVLEKFPGFDFICDPAFITLNYGTQESGFEVIIRENPFYSEHADDATLIAGLVQDAIPGERTRLSNIIHRLADLESRSCEEVSLEWFRRYMNISLKPMVWMYLQYGVALEAHQQNSVVQLKDGYPVKYYFRDNQGFYFCNSMKEMLNNELAGIGERTGNLYDDYIVDERFRYYLIFNHMFGLINGFGTAGLIREEILLTELRTVLESFLPYNREPSTFLRELLEEDKLACKANLLTRFFDVDELSNPLEQAIYVQVQNPLVREVAVRS	failed
MRIAALFTCIIGVFMLATSVQAAQPADITRLSNGLTVLVLKDDRFPLASLRLYVHAGSAFETPEEAGISHLLEHMVFKGTVKRPKGQVARDVESVGGYLNAATSFDYTVYLTDMPSTQWKLGMDVLRDMAFEPALDPAELESEKDVVIAELQRGEDSPDSRIFQSLQAGTLKGTTYERPIIGYRETIRATTADTMRAYIRKHYQPQSMLLTVVGNVDPAEVRAEAERLFGGLTNDQNITPPAAIDARAFAHGPVVNVEHGPWKKVYLGVALPVPGLKALQAAQLDMLSQLLGGDPTALLYRTFKYEKQLVDDISVANYSFERVGMLYITAELDADKVETFWKELTTMLAGLKADAFTEQEFERARLNIEDGLYRSKETVAGLASKEGYFQFFSDGPQGEANYLQAVRDVERPQLEALIRDWLRPERLTVSVLLPEGTKAPALAATLKSTWPSKGKAAEEGNAAAVGKTETVDLGGGRKVVLIPDTTLPYTALDMVFSGGNALLDQNRQGLAALTASVLTKGTLKHDAPTLEAFQSDRAASLGASAGRRTFTLSLREPSRFDGDMFGLLHEVLTTPALAPDEVAREKRNQVASIRAREDQPLGLAFRHLTPFLFPGHSYGFYHLGQPETVEGFTRDDVKAFWARQAAQPWVMSVAGSFDREAVLRFAKSLPAPSGKPVSLDAPAWTPEKALDLRLPERNQAHLLLVFPTVGLAHKDTPALELLQSVLAGQSGLLFRDMRDKQGLGYTVTAMNWQSDLAGFMVLYIGTEPGKLEQAEAGFRKVIDQLHATALPDEELRRGKNQMRGDYYREHQRLGSRSSEAAMLTSQGYPLLFNREVIDKAEKLAPSDLERVARTYLDMNKVRVVKVLP	failed
MSWTVVYSAQAKQDLRNIFEYIAHSLCSPDAAKSQTRRIMAEIHSLDEMPLRYRIYDDEPWRSQGLRFFPVDYYLVFYLPVASANTVKIVRIMYGGRDVKKHLEEELLEHHHHHH	failed
